This assay deals with wild-type human uPAR (human) (UniProt Q03405). As to the kind of experiment: cell-based or functional assay.
Sequence of wild-type human uPAR (human) (Q03405 23-305): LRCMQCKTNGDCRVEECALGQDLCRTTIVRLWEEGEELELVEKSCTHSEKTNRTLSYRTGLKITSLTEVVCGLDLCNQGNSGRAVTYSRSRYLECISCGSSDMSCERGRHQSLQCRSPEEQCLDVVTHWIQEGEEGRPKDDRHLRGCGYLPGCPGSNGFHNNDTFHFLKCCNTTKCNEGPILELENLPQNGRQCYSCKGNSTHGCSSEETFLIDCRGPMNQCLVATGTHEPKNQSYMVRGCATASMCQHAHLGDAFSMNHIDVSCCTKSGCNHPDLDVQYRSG

In the case of R2 (antibody), the % max inhibition (pro-uPA pre-treat.) was determined as 21% and the % max inhibition (veh. pre-treat.) amounted to 65%.

In the case of “Somatomedin B domain of VN (from UniProt P04004 20-63) (ligand)”, the % max inhibition (pro-uPA pre-treat.) was 100%, the % max inhibition (veh. pre-treat.) turned out to be 100% and the IC50 (pro-uPA pre-treat.) worked out at 800 nM.

The values are drawn from patent US20140161803A1, “CONSTITUTIVELY ACTIVE UPAR VARIANTS AND THEIR USE FOR THE GENERATION AND ISOLATION OF INHIBITORY ANTIBODIES” (IFOM Fondazione Istituo FIRC di Oncologia Molecolare, priority 2011, published 2014).
